System: MS2 coat protein
Test: apparent KD of MS2 coat protein; designed switch direction (-1 OFF switch, 1 ON switch): -1; higher = weaker reporter binding
Summary of the method: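 The apparent KD reported per design is the median over clusters of curve fits to normalised cluster fluorescence. The RNA switches were transcribed on Illumina chips by stalled E. coli RNA polymerase. SNAP-549-labelled MS2 coat protein was titrated from 0.7 or 1.5 nM, doubling up to 3 µM, in Tris-HCl pH 7.5 buffer containing KCl, MgCl2, BSA, DTT, tRNA and Tween-20, with no input, 200 uM small-molecule ligand, or an oligonucleotide input.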

[1] = input ligand: microRNA oligo, concentration not stated
[2] = Eterna round: R95, input ligand: FMN 200 uM
[3] = Eterna round: R95, input ligand: microRNA oligo, concentration not stated
[4] = Eterna round: R95, input ligand: none

Sequence	apparent KD of MS2 coat protein [1] [nM]	apparent KD of MS2 coat protein (input ligand: FMN 200 uM) [nM]	apparent KD of MS2 coat protein (input ligand: none) [nM]	apparent KD of MS2 coat protein [2] [nM]	apparent KD of MS2 coat protein [3] [nM]	apparent KD of MS2 coat protein [4] [nM]
UAUAUAUAGUAAGGAUAUGUAUUUAUUUUAGAAACAGAAGGUACUGACAUGAGGAUCACCCAUGUUUUAGUGUGGGCAUGUAGA [JMF's solution 23] (Eterna round: R96, puzzle: Exclusion NG 1)	62	–	–	–	–	–
AAGAAGCUAGGAUAUACAUGAGGAUCACCCAUGUCUCCAUGGUUGACGAGUUCCGCACGUAGAAGGAGCAAAAC [Aerdidima] (Eterna round: R97, puzzle: Exclusion 3)	–	225	56.7	–	–	–
UUUAAUUUUUUUUUUUUACAAGCUUUUUGCUCGUCUUAUACAUGAGGAUCACCCAUGUGAGUGGGAAGUAAAUUAUC [JMF 55] (puzzle: Sensor v3, turn-off variant 2)	–	–	–	20.5	248	19.9
AAAGCACAUGAGGAUCACCCAUGUGAGGAUAUACAGAAAAUCUCGUUUACGAGGACUCGUAGAAGGCGCAGUGC [Eternabot (L2) Solution 19] (Eterna round: R97, puzzle: Exclusion 1)	–	20.9	21.3	–	–	–
UAUAAUCGAGGAUAUACAUGAGGAUCACCCAUGUGUUGCCGCGUGAUGUGUUUGUCAGGUAGAAGGCGAUUAUA [Exclusion 3 - Mod of Jieux's Gilly Gone Silly 23 v.9] (puzzle: Exclusion 3)	–	–	–	–	153	–
AAGUAUAGAGGAUAUAGUAGUUACAACAUGAGGAUCACCCAUGUUCUUCAUAACGUAGAUCUAGAAGGCUGAUAAA [EX-5 Malc#29] (puzzle: Exclusion 5)	–	–	–	145	114	140
UUAAUUAGCUCGCUAGAUCCUCACAUGAGGAUCACCCAUGUGCAGGAUAUCAGCUCGUUUAGAGCUGAGAAGGGCACUGCGAGC [ExNG3/10-A2] (Eterna round: R96, puzzle: Exclusion NG 3)	120	147	114	–	–	–
UACAUGAGGAUCACCCAUGUUUUGUCGUGUAUGGUACCCGUCUAGGAUAUCGUGUUAUUGGACCGCGAGAAGGAGAGUAUCAAU [Excl-NG3-LRO03] (Eterna round: R96, puzzle: Exclusion NG 3)	20.2	26.4	33.5	–	–	–
GUUUUGGGAGGAUAUAUGUGGAUAAUUUUUAUAUGAAAUUUACAUGAGGAUCACCCAUGUAGAAGGUCUAGAGC [-18.5, -15.1 kcal, 31% A] (Eterna round: R97, puzzle: Exclusion 2)	–	476	261	–	–	–
CCCAUGUUAGGAUAUAUGGAAGGGCAGACGGGCGCCCUAAGGUAGAAGGAACAUGAGGAUCACCCAUGUAAUAA [Zausteesre] (Eterna round: R97, puzzle: Exclusion 4)	–	113	67.3	–	–	–
CAAUUAAUUAAUUAAUAAUACAUGAGGAUCACCCAUGUAGAUCCUACAUACAAGCUAAGUAGCUCGUCUUAUAAUUA [Stov1/2-A3] (Eterna round: R97, puzzle: Sensor, turn-off variant 1)	–	417	625	–	–	–
CCCAGGGCAGGAUAUAGAGGGUGAAACAUGAGGAUCACCCAUGUGACCUCGGAACAGCUGCUAGAAGGGCCAAAUU [Eszaraxe] (puzzle: Exclusion 5)	–	–	–	19.2	15.3	16.3
AGUAACCGUCACGAAAGUGAUGGUUACACAAGUGUAAUAACAUGAGGAUCACCCAUGUCCUCAUUUGCUCGUCUUAU [Sensor 3 - 36] (puzzle: Sensor v3, turn-off variant 2)	–	–	–	41.9	121	49.4
AAUAACAGAGGAUAUACUGUUUUAUGUGUUUGUUAUUUUGAACAUGAGGAUCACCCAUGUAGAAGGCUGAUUAA [JMF 50] (puzzle: Exclusion 2)	–	–	–	–	37.4	–
AAUUCACAUGAGGAUCACCCAUGUCAGGAUAUGGUUUUAUUUUUUUCUUUUCUUGAUUCCAGAAGGGACAGCUA (puzzle: Exclusion 1)	–	–	–	–	70.8	–

Reference: the supplement of paper PMC9170038
